Source: paper PMC11141937 (JCI Insight, 2024)

Legend:
[1] = target: SARS-CoV-2 Omicron BA.4/5 S protein on S-293T cells (SARS-CoV-2 Omicron BA.4/5, strain); assay: flow cytometry on cells; settings: one partner purified
[2] = target: SARS-CoV-2 Omicron BA.1 S protein on S-293T cells (SARS-CoV-2 Omicron BA.1, strain); assay: flow cytometry on cells; settings: one partner purified
[3] = target: SARS-CoV-2 Omicron BA.2 S protein on S-293T cells (SARS-CoV-2 Omicron BA.2, strain); assay: flow cytometry on cells; settings: one partner purified
[4] = target: SARS-CoV-2 Delta S protein on S-293T cells (SARS-CoV-2 Delta (B.1.617.2), strain); assay: flow cytometry on cells; settings: one partner purified
[5] = target: SARS-CoV-2 Delta S protein ectodomain (SARS-CoV-2 Delta (B.1.617.2), strain); assay: BLI; settings: both partners purified
[6] = target: SARS-CoV-2 Omicron BA.2 S protein ectodomain (SARS-CoV-2 Omicron BA.2, strain); assay: BLI; settings: both partners purified

Measured: binding result

B1: O5C2 mAb (antibody, V domains shown)
VH: EVQLVESGGGLIQPGGSLRLSCAASGIIVSRNYMSWVRQAPGKGLEWVSILYAGGSSFYAEPVQGRFTVSRDNSKNTLFLEMNSLRVEDTAVYYCARDLQWGIDIWGQGAMVTVSS
VL: DIQMTQTPPSLSASVGDRVSISCRASQSTGSWLAWYQQKPGKAPKLLIYKTSSLESGVPSRFSGSGSGTEFTLTISSLQPDDVATYYCQHYDTYSSTFGQGTKVEIK
binds: [1] | [2] | [3] | [4] | [5] | [6]
